Assay: soluble fraction after stress (log2 fold change); higher = more stays soluble; pooled small domains, quantitative proteomics
Conditions: stress: 50 degC
Procedure, shortened: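 Pooled custom libraries of small protein domains were each held under stress at 50°C. The read-out, high-throughput quantitative proteomics, tracked how much of each protein stayed soluble. This is reported as a base-two log fold change used to indicate aggregation propensity. Higher values mean more protein remains in solution.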

| Sequence | soluble fraction (log2) |
| --- | --- |
| HMKVDRLVSMILILLEQQRVGAQELADRFEVSVRTIYRDMEAINQAGIPVRSTSGVGGGFEIM | -0.34 |
| HMKNEFRVYPNPANKEIVTFNQTQDIEVYDTLGKLVLKAKNTNTLDTKSFHSGIYFIKTGSGLTRKLVV | 0.107 |
| HMLYDNQLPDWAGQMVKNHGLTISPKALVILVDHIGNDLSRIENEIEKLMLNLGTRKSITEDDVEN | -1.28 |
| HMGDYDHYVVKVEDTLLNWLVTNVTTMSRNKLKDILAGQGIKVNGKITTKYDYPLTPGMKIAISKTKR | -0.275 |
| HMRRFEFSDGSSNKFWQITRDGTSLTVTFGKIGTAGQTQLKELATEAAAIAEHDKLVKEKTKKGYAEVG | -0.206 |
| HMAFKNGLLQTSKKVTLVRKVDGVTMRFDSLRAASVFLGRNKGYLSNVIKNGRTLDNYEIVVGE | -0.991 |
| HMGTESFGARIRKIREARDWTPAALAEATGQTPEFVARVERDEVAPPVAFLLRLAAALGVDPSTF | -0.123 |
| HMVKETNYSFFLKQIDAGTVEQVQIEDTEIKFKVSTADGKEQVYSTVRVEDPDLVDRLYSKGNIDFTGN | -0.0595 |
| HMPKDMAKRASILTAASKLFVQHGYGGVSMDQIAAEAGVSKLTVYSHYGDKDSLFAAAVQAH | -0.328 |
| HMKIELSDNEKIIYDLLSSQHVLLSEIKDKAGLSNKAWDKSTKSLRKLGLIAVEKKDDDIYISKL | -0.0233 |
| HMPAGWIPARIRLADYPQLRSLAWHVQGIDTLTPTEALDIYERNARHLDAQAMSAQEQDLLASLRLALS | -0.839 |
| HMGSEGVKVEDTIGMSEAEATATLGKSGFVVNKTESHDPYIKAGNVITQSPAAGSKAPKGTTVTLTISLGP | 0.131 |
| HMTDRKRDAIVQAAIGEFREHGFNGTSMDRVAAAADVSKRTVYNHFPSKEELFEAILLLMWE | -2.09 |
| HMGSVNDNVQKLTSQIGETTETGDTITPEDVELYKKMVDPLSTMAQKLEAAEILKLKGIIGSNGIIV | -0.0442 |
| HMSDFEASDPALLREGMRVQHLNFGKGTVITIEGAGANKKASVAFDGVGTKQLMLRFARLKIIYE | -0.146 |
| HMSDSGLPLPRFVSLGDDRVNARAGPGFRFPINWVYLRKNFPVEVIDEFGHWRRIKDIDGIEGWIHLSML | -0.775 |
| HMDRKFFFNEQYEDYINSDLKVKFMNDSGSKKSFQGELTKVTPSDLFLESEKESVKVPFSSIIQANLI | -0.147 |
| HMENTGFKDKKGNYIFDGDIVKDILGNIMKVEFKHFKWQLIPLNKTAFNMPMVDWLDLETETLNAEIIGN | -2.13 |
| HMDILPEGNYKVNYDVIDEVGNIVANKNDIVVTEKSIKPLNTILGIDLYEVIHSQTGKYFTINGDNLTN | -0.00162 |
| HMQMSDTSMIRDLVLQVLAENPQSIEDFKNGKDRAVGFLVGMVMKKSQGKANPQITNQMIVEELKK | -0.104 |
| HMKPDDDMLLKILTKLFIQKQFVINSKDIFQYILKNTNRTYENIINIVNRLDTLSIEKKRQLTIPLIKEI | -0.457 |
| HMGMVEFEIGERDHSEDVSRKLFEAGLIEDASDFNQYMIEKKMDDHLQTGKYQIPKGATKDEILELIVR | -0.00544 |
| HMAPPPLAGAREALREQIRRGSLSARRGFDAYADALGLPAGTRGAHPIFAALQRLDYPQALRLLDQEPT | 0.0894 |
| HMAGLKERLFYFIEYKGLTVQSFEKTVGLSNGAVSKMGDNTRRSTIDKISNFFGDLNKNWLLTGEGEMLI | -0.99 |
| HMINRMGRLVEALSHMIANTKPGARLPSEPELARQLGVSRATLREAMRTFEAQGMIHRRQGAGTFVVH | -0.402 |

| Sequence | soluble fraction (log2) |
| --- | --- |
| HMTKTEFLNLLEQRLFVLNDNERADLLSEYKQHIEMKIQSGLSEEEAIADFGDPEELIKELLEAY | -0.33 |
| HMKQVTVGGTINAGGARIYADSYGNGGGRQTFGSDPIYTVLQERNGYILTRWHKLSSGYTGWFKKSDVSA | -0.298 |
| HMQDENAVTYLLEIKNADANDIASVLKTLKSPDADVVVYKTLNMIIFTGQGSEINGLVKVARQLDRK | -0.417 |
| HMLSAGETYTLGYLKASDGILFTAADGSEQTVMQRVQVRLYDNGDGTYTARLADDIAYSAVVTEDMIDK | -0.116 |
| HMSKSIELMNEIKKYIEEYYLQYRQSPSTTKIAEAVGIARGTAYKYLVEMSERNMIEYDGQEISTEVTRKY | -0.0213 |
| HMRMSPRERKIYQFIENHPGTKSGEMAEKLGIPLPTIKRLLSDMVASKLLQKHGTGAGTNYSIEE | 0.201 |
| HMKAMIIVMKPGADMATISKVLKTIETNGFKPHLSKGEETTVIGVIGDERKLNPDIFSTLEGVERIVPVA | 0.255 |
| HMNNFTPEHLEKDIEGSLFFRRLKETAREEPGSLTVAQKDFIQMWHDQADGVYTLRQVFVQTAFDHVRSL | 0.1 |
| HMSFSQNIGKRIREERLRLNLTQEKLAEDVNLSMAYIGQVERGDRSLTLDNLIIVAKRLGVTIDYLLS | -1.25 |
| HMSLSPAATRSRGYPSVLLTMKAPERLVSAAGPDRRAYLVGTDPLVIELPGVKGLYKVDPDQIVFE | 0.0566 |
| HMRQSSLRTRELLIDAARQLFARFGVEKTTMNDIAEASKRGRRTVYMYFNSKSDVFYAVVGRE | -0.212 |
| HMSVISVETAKSKALAHAGLTASKVTFIENKLEWDDGRQVYDIEFYTSDYKEYDYTIDAVSGQVLEFDY | -1.13 |
| HMNHAPSLMRKIRRGLKEGRNPDDLLVNAKSISDYYYRSLSFYLLAPHFSSKSKQYKQVISLANS | 0.036 |
| HMAPNKLQQQEVWTKALPLLQQMIMTIRQIDAAGGDSSPERELLEETAARFDETLDVERFLP | -0.308 |
| HMKDIIVDPQGQYNHPGVPTRIPSSDITMKGVGYPVLGIADNGQKQMMQPGQDYKFPGAKYVDEYPQM | 0.137 |
| HMGSGQVTLPDLEGKSMKEVARILSQLGLHLSPDGHGLAFKQSPAAGTRVPVGSTIKVSFQPL | 0.0366 |
| HMEIEIPEELQNKFAEIPELKTAFESLTPGRQRAYVLYFSQPKQSKTREARIEKYIPHILDGKGMN | 0.111 |
| HMREITVEELYELEGIRIVGTIPGISAWVAESGRQMVFLVGQKVKGHDLLEVGESRVVLRKGDSVVNVLL | -0.0622 |
| HMRNTETMKEIQAFVEDYFFEYHQSPSMQKVADAIGTSKSTAYYYVMEMARNGMLHYDGKTIETPHTQKS | -1.09 |
| HMSLSKQETEFLTTFSASGKRVFTYQQATDYWQSKVAATNVLGRLVRKGWLQRLERGLYMIIPLEAGPERF | -0.853 |
| HMSSWAEGLTERERHTLMWITKGLSNKLIARELGISDSTVKVYVKNLLRKLNVNSRLELAAWVHTHPL | -0.906 |
| HMTGESIPFSKFLSEVDSGRVINVEIQGNNISGLLSDGNKFKTYSPNYPNLVEILSEKEVSIVATPLE | 0.0525 |
| HMRAAFEHLTIGQTVSGLVKSQARGVSLVEIEGQTVAMRLPQPVAVGDTLRLRFAGHMPQPVFLLDT | -0.132 |
| HMVSKEELANSIYENKTADELGNIVLRKGKYSGEMLRTIYVKDIGYLEWHSKQSYEYSNAVKWYLKKLE | -1.21 |
| HMVLSVRERMGIVLEKVNTETFTDFKELFTVEEGRAGAIVSLLAILQLMKDSLIQLVQNEPNGPIYVKAA | -0.673 |

| Sequence | soluble fraction (log2) |
| --- | --- |
| HMYEGLPVTLIIDGRVIEANLAKANRDMAWLERELANSGVRSHHDVFFATLDSRGQLYYQVKN | -0.143 |
| HMNADAIVGRTGVVTEAIAADGFGRVQIDGDSWKAKASGNNGIDVGAKVRVLRIDSIILTVEK | 0.0422 |
| HMEIESAHAQVLGVREIAASGATQHWIAFRFSDGHQRELLATPSQADVIFRGQQGVVHFAGDRLTGWIPE | -0.191 |
| HMSLNNAHNTIFPRIIELMEMKQLENVLLIGGGIIPRKDIESLESSGVTKLYGPGTPVKETIEFITNWVK | -0.268 |
| HMSSIVLTARSGRAALAYRVKSIGVDLSKDQLDLVYKTFLGFADKKKEIIDTDIPQILKASGI | -1.92 |
| HMTGRVKWYDATKGFGFVTSDEGGDVFLPKGALPAGVADLKTGQRIEFGVVDSRKGAQALGVK | 0.337 |
| HMETNFTGTRIATARKAKNMSQAQLAQQLFISPQAVGKWERGESIPDIVTVVKLADVLGVDLNYFSE | -0.12 |
| HMEVSVPDFTGMSKSDAQNAAKEAGLTVNFEEDYDNQVPAGQVIRSNPSAGEKVKKNSSVTVTLSKGSN | -0.0943 |
| HMGSNATIKYAIKGDESLVQVAQKFNVTVSELRSWNNISAFENAKTGQELVINVPASKYETYFALANT | 0.22 |
| HMQLDLSDPSKNKLDSIVSLPIKSLKAVEANGEILFMSENGRFVLRGQLYDIWYKDTLDTSAQIQDAATRI | 0.109 |
| HMTFFDDLLYQAKAAVDNDPSIKPSLHNRAIIEILYQQGVFNMKNAVEHVAELLEISKNTVYLHLRSVKG | -0.973 |
| HMHVSLSGKIHSELRKLILNGELKAGERLPSEPDLAHELGVSRNSLREAIGLLQREGLLLKKHGIGTFVTD | -0.829 |
| HMEYPNEIARIFNQIPELNVSAVARTLGINKSLLSSYIYGMKKPSPERTEEIKSAIRKIGQNMLAV | -0.421 |
| HMKPSTVSVPDVSGDKLSTAKMIIRKSGLKVGDVQKIEDDNVGAGKVVRTNPSAGSKKREGSSVDIFVASA | 0.16 |
| HMAEIIVHEINRHLGESDEPVEFPEERREEAVAELLKNFHNDDAFRKMDDGKYEVALDGEAVREAARSLLA | 0.207 |
| HMEYYDDEELDRFRGVEADAYDEDAVNEFRDVLYTLQEIEVAGWLRSLQLRAINLPDELKDEAFLI | -1.64 |
| HMTQEMPAEVKKKADAFNNAMDEENYTEAKAILAELEQNTAPSYPLLLQMQTRYAFETASWE | -0.00382 |
| HMESRDRVRQASAAGYRFMSTMAGHEPGFEEASRALFAGDQTAFEARITAWPVDVQTHLKKILAEAFTT | -0.734 |
| HMGTPLYLLLAAEVRDRIATEQLAPHTAVPSERELAELHGVSRMTARQALALLESEGLVYRNPPRGTFVAE | -0.85 |
| HMVGEQISYIPLKFATASEVVKSLTSMFQQQKGIAPIRIVAEERTNAILLLASEADTARVKNLIAMMDKGV | -0.0246 |
| HMLSDLTPGDLVVHATHGIGRFLGIRKLELEGMTKDYITIQYRGNENLYVPVTQMDLVSRYI | -0.292 |
| HMLPIMDRLITAGISINTAKKWVDKFGDKRIKQNLAYSLAKQKEGKVKTNFVGYLAKAIEEDWGSGWE | -0.557 |
| HMDTFSVAIGTKTPDGSSVGEVKTISRDELLLLEDEVAEDPTKEIIFTGGTKDSAQAALDGWIDYNTNLAS | 0.00318 |
| HMQSAKLSYSDFMQKVNAGDVVSVKIQGPKISGVTTGGGKFMTYAPEDPTLVSTLMQKKVEVMAEP | 0.178 |
| HMVAFYATPKERGIYDDAETYREGDIVSIADGSRWIYVNPTATAGNDPADGSVYWERMSGAATGP | 0.0147 |
